Reference: the nanobody polyreactivity screen of Harvey et al. (2022)

Test: yeast display, Sf9 membrane polyspecificity reagent, FACS + sequencing; frameworks hold sequencing errors
Outline: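 A synthetic nanobody library was expressed on Saccharomyces cerevisiae BJ5465 by galactose induction for 36–48 hours. The library was stained for 1 hour at 4 °C with 10% biotinylated, detergent-solubilized Sf9 membrane reagent and enriched with streptavidin microbeads before FACS. Low and high (top ~1%) gates were set on anti-HA fluorescence for expression and streptavidin fluorescence for reagent binding, and each polyreactivity label reflects the gate of origin.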

Sequence | polyreactivity (PSR sort gate)
QVQLVESGGGLVHAGGSLPLSCAASGLTFGSNPMRTYRQAPVQERELVAAISGGTSTNYADSVKGRFTISRDNAKNTVYLQMNSMTPEDTAVYYCAAAKRTADYASYWYVENDYWGQGSQVTVSS | low polyreactivity
QVQLVESGGGLVQAGGSLRLSCAASGFTFWDYAMGWYRQSPGKERELVAAISSRGTRTYYADSVKGRFTISRDNAKNTVYLQMNSLKPEDTAVYYCATAITDPDYIHNYWGQGTQVTVSS | high polyreactivity
QLQLVESGGGLVQAGGSLRLSCAASGIIFIYNGMGWYRQAPGKERELVATINWSGGNTYYADSVKGRFTISRDNAKNTVYLQMNSLKPEDTAVYYCAVRGSRYWGYDYWGQGTQVTVSS | low polyreactivity
QVQLVESGGGLVQAGCSLRLSCAASGFIFATNTMGWYRHSPGKERELVAASSTYYAESVKGRFTISRDNAKNTVYLQMNSLKQEDTAVYYCNAYRDSYIGFVDWAGEYWGQGTQVTVSS | low polyreactivity
QVQLVESGGGLVQAGGSLRLSCAASGSTFVKNTMGWYRQAPGKERELVAAIRSSGGSTYYADSVKGRFTISRDNAKNTVYLQMNSLKPEDTAVYYCNKVLQASRSKYYYWGQGTQVTVSS | high polyreactivity
QVQLVESGGGLVQAGGSLRLSCAASGRIFGTYAMGWYRQAPGKERELVAAITSSGGRTYYADSVKGRFTISRDNAKNTVYLQMNRLKPEDTAVYYCAAYPWYRMWGQGTQVTVSS | high polyreactivity
QVQLVESGGGLVQAGGSLRLSCAASGRIFRYYAMGWYRQAPGKERELVAAIRSDDSTNYADSVKGRFTISRDNAKNTVYLQMNSLKPEDTAVYYCAAVKAYYGGSRSYYYWGQGTQVTVSS | high polyreactivity
QVQLVESGGGLVQAGGSLRLICSASGSIFYRNVKRWSRQAPGKEREFVATISRGGTTNYADSVKGRITISRDNAKYTVYLQMNSLKPEDTAVYYCAAPIGVVYVGKGYDYWGQGTQVTLSS | low polyreactivity
QVQLVESGGGLVQAGGSLRLSCAASGRIFVYYVMGWYRQAPGKERELVAAITYSGGSTYYADSVKGRFTISRDNAKNTVYLQMNRLKTEDTAVYYCNKVDAFGIVRLYYWGQGTQVTVSS | low polyreactivity
QVQLVESGGGLVQAGGSLRLSCAASGSTFRINAMGWYRQAPGNERELVAAMSYNGGGTYADSVKGRFTISRDNAKNTVYLQMNSLKPEDTAVSYCAADTYYGQAYTAYTYRLYDYWGEGTQVTVSS | low polyreactivity
QVQLVESGGGLVQAGGSLRLTCAASGSTFSVYDMGWYRKAPGKERELVAAIDVTGGSTYYADSVKGRFTISRDNAKNTVSLQMNSLKPEDTAVYYCNAGKCYSLYGMYYWGQGTQVTVSS | low polyreactivity
QVQLVESGGGLVQAGGSLRLSCAASGSTFRFNAMGWYRQAPGKERELVAAISGSGGSTYYADSVKGRFTISRDNAKNTVYLQMNSLKPEDTAVYYCAASASSRSYFKSYYWGQGTQVTVSS | high polyreactivity
QVQLVESGGGLVQAGGSLRLSCAASGRTFEYYAMGWYRQAPGKERELVAAIDSGGSTNYADSVKGRFTISRDNAKNTVYLQMNSLKPEDTAVYYCATEVDQNYNYDYWGQCTQVTVSS | low polyreactivity
QVQLVESGGGLVQAGGSLRLSCAASGLTFYRYAMGWYRQARGKERELVAAISRRGGRTYSADSVKGRFTISRDNAKTTVYLQMNSLKPEDTAVYYCAAVTRDYRNDRRRQRYYYWGQGTQETVSS | high polyreactivity
QVQLVESGGGLVQAGGSIRLSCAASGSIFVDNARGWYRPAPGKERELVAAIRSRDTSTYYADSVKGRFTISRDNAKHTVYLQMNSLKPEDTAVYYCAARTSKRVSQYNYWGQGTQVTVSS | high polyreactivity
QVQLEESVGGLDQAVGSLRLSCAASGFTFNRYTMGWYRQAPGKEREFVASITRSGGSTYYADSVKGRFTISRDNAKNTVYLQMNSLTPEDTAVYYCAPVYQYSSRYDHWGQGTQVTVSS | high polyreactivity
QVQLVESGGGLVQAGGSLRLSCAASGRIIYDKAMGWYRQAPGKERELVAAISRSGRTYYADSVKGRFTISRDNAKNTVYLQMNSLKPEDSAVYYCNARTLTVLEFDYWGQGTQVTVSS | low polyreactivity
QVQLVESGGGLVQAGGSLRLSCADSGRTFWSNAMGWYRQAPGKERELVARIDSTYYADSVKGRFTISRDNAKNTVYLQMNSLKPEDTAVYYCNADTIYYAGDFRYDYWGQGTQVTVSS | low polyreactivity
QVQLVESGGGLVQAGGSLRLSCAASGRTFSKYVMGWYRQAPGKERELVATITSGGSTYYADSVKGRFTISRDNAKNTVYLQMNSLKPEDTAVYYCAARIWYYNYWGQGTQVTVSS | high polyreactivity
QVQLVESGGGLVQAGGSLSLSCAASGYIFSSNTMGWYRQAPGKERELVAGITASATITYYADSVKGRFTISRDNAKNTVYLQMNSLKPEDTAVYYCAADPVLGVFKFEYWGQGTQVTVSS | low polyreactivity
QVQLVESGGGLVQAGGSLRLSCAASGSTFALYAMGGSRPAPGKERELVAVINSGGSTYYADSVKGRFTISRDNAKNTVYLLMNSLKPEDTAVSYCATVYVWAYRGTDSSYRFDYWGKGTQVTVSS | low polyreactivity
QVQLVESGGGLVQAGGSLRLSCAASGLIFSYNAMGWYRPATGNERELVATIRRVGSTNYADSVKGRFTISRDNAKITVYLQMNSLKPEDTAVYYCAARSLRYGRGMYYWGQGTQVTVSS | high polyreactivity

Sequence | polyreactivity (PSR sort gate)
QVQIVESGAVIVQAGGSLRLSCAASGSTFGSYTMGWYRQAPGKERELVASISRDGRTKYADSVKGRFTISRDNATNTVYLQMKSLKPEDTAVYYCANSKWRGRGGTYDYWGQVTQVTVSS | high polyreactivity
QVQIVESGGGLVQAGGSLRLSCAASGSIFYYYAMGWYRQAPGKERELVAAITRSGGSTYYADSVKGRFTISRDNEKNTVYLQMNSLKPEDTAVYYCAKDAHAYRDLDYWGQGTQVTVSS | low polyreactivity
KVQLVESGGGLVQAGGSLRISCAASGIIFLGYAMGWYRQAPGKERELVAGISSRGGSTYYADSVKGRFTISRDNAKNTVYLQMNSLKPADSAVYYCAAVSRGSGRDYWGQGTQVTVSS | high polyreactivity
QVHLVESGGGLVQAGGSLRLSCAASGSIFGPYVMGWYRQAPGKEREFVAAIRGSGGSTYYADTVKGRFTISRDNAKNTVYLQMTSLKPEDTAVYYCNASLKYTLYYYWGQGTQVTVSS | high polyreactivity
QVQLVESGGGLVQAGGSLRLSCAASGRIFRDYAMGWYRQAPGKERELVAAIRSVGNTNYADSVKGRFTISRDNAKNTVYLQMNSLKPEDTAVYYCNRQGSYFSRQAIGDFRFDYWGQGTQVTVSS | low polyreactivity
QVQLVESGGGLVQAGGSLRLSCAASGRTSVLYAMGWYRQAPGKEREFVAAITWNSGSTYYADSVKGRFTISRDNAKNTVYFQMNSLNPEDTAGYYCAADGLSYYVIRFDYWGQGTQVTVSS | low polyreactivity
QVQLVESGGGLVQAGGSLRLSCAASGSIFSVYVMGWYRQAPGKESELVAAISWSDRDTYYADSVKGRFTISRDYAKNTVDFQMNSLKPVDTAVYYGAAETFDYDVYIANGSGEYDYWGQVTQVTVSS | high polyreactivity
QVQLVESGGGLVQAGGSLRLSCAASGFIFKRSAMGWYRQAPGKERELVAAITLSGGDTYYADSVKGRFTISRDNAKNNVYLQMNSLKPEDTAVYYCNAPYIGENYYWGQGTQVTVSS | high polyreactivity
QVQLVESGGGLVQAGGSLRLSCAASGRIFKNYAMGWYRQAPGKERELVAAITWSVGSTYYADSVKGRFTISRDNAKNTVYLQMNSLKPEDTAVYYCAARRSDFRGAKDGYYYWGQGTQVTVSS | low polyreactivity
QVQLVESGGGLVQAGGSLRLSCAASGRTFSRYTMGWYRQAPGKERELVAAISVNGGTTHYADSVKGRFTISRDNAKNTVYLQMNSLKPEDTAVYYCNARRRVGKYKYDYWGQGTQVTVSS | high polyreactivity
QVQLVESGGGLVQAGGSLRLSCAASGRTFFKYVMGWYRQAPGKERELVAAISYRSGSTYYADSVKGRFTISRDNAKNTVYLQMNSLKPEDTAVYYCAIEPPPVKGDYWGQGTQVTVSS | low polyreactivity
QGQLVESGGGLVQAGGSLRLSCAAAGFTFGSYAMGWYRHAPGKERELFARISSDGSTNYADSVKGRFTISSDNAKNTVYLQMNSLKPEDTAVYYCNADRQYTCSLVFFSSDYDYWGLGTQVTVSS | low polyreactivity
QVQLVESGGGLVQAGGSLRLSCAASGFIFRQNAMGWYRQAPGKEWELVARITWNGGRTYYADSVKGRFTISRDNAKNTVYLQMHSLKPEDTAVYYCNAVYWGYGKYDYWGQGTQVTVSS | high polyreactivity
QVQLVESGAGLVQAGGSLRLSCAASGTIFSGNAMGWYRQAPGKESELVAAISRSGGSTYYADSVKGRFTISRDNAKNTVSLQKNSLKPEDTAVYYCAAYRTHGPPRAIRFDYWGQGSQVTVSS | high polyreactivity
QVQLVESGGGLVQAGGSLRLSCAASGSIFPYNDMGWYRQAPGKERELVAAISDSAGSTYYADSVKGRFTISRDNAKNTVYLQMNSLKPEYTAVYYCADYDYWGQGTQVTVSS | low polyreactivity
QVQLVESGGGLVQAGGSLRLSCAASGITFDDYVMGWYRQAPGKERELVAAITRSGGRTYYADSVKGRFTISRDNAKNTVYLQMNSLKPEDTAVYYCAARHRDNRFDYWGQGTQVTVSS | high polyreactivity
QVQLVESGGGLVQAGGSLRLSCAASGSIFGGYAMGWYRQAPGKERELVATITRGGSTYYADSVKGRFTISRDNAKNTVYFQMNSLKPEDTAVYYCAARLRSKTYYTLEFDYWGQGTQVTVSS | high polyreactivity
QVQLVESGGGLVQAGGSLRLSCAASGITFYYYAKGWYRQAPGKERELVSAISFRGGSTYYADSVKGRFTISRDNAKNSVYLQMNSLKPEDTAVYYCAAETSRSWYTWVSYDYWGQGTQVNVSS | high polyreactivity
QDQLVESGGGLVQAGGSLRLSCAASGNIFVTNAMGWYRQAPGKERELVAAITYSGGTTYYADSVKGRFTISRDNAKNTVYLQMNSLKPEDTAVYYCAADFATWTYYPYRLDEFDYWGQGTQVTVSS | low polyreactivity
QVQLVESGGGLVQAGGSLRLSCAASGSIFPLNAMGWYRQAPGKERELVASISTGSSTYYADSVKGRFTISRDNAKNTVYLQMNSLKPEDTAVYYCAVDRVLFSDYYRGYEYNYWGQGTQVTVSS | low polyreactivity
QVQLVESGGGLVQAGGSLRLICAASGFIFGGYAMGWYRQAHGKERELVAAISSSGGSTYYADSVKGRFTISRDNAKNTVYLQMNSLKPEDTAVYYCAADRYYYRGRYYGYTREFDYWGQGTQVTVSS | high polyreactivity
